{"source": "the DeepSol protein solubility set", "data": [{"assay": "soluble on expression in E. coli; label from the status in PepcDB or PDB records", "values": [{"sequence": "MGSDKIHHHHHHMILLNYSQCFCLHNESRQKIAPSCWLNIGVHYMRIQQLRDLLEYVANCRLDMAQLYGRLNNQADSARVKMMLEYFESHQKHVAEKLRDYMDEAPVRVLDTWYKDFVFEDFTKRCQDTMLPANMNEDDVLNLHLDLENRLIGLLEKTVNSTTAEDARTALEGLIRVEKIQQQRLVHSTIRMDDI", "soluble on expression in E. coli": "not soluble"}, {"sequence": "MTPRIIVTDMDGTLLNSEHEIPARFWPLLDEMHEQGIVFAPASGRQLYTLLDQFAQAGKDLSVIAENGTVVYHEGEIISVTTIDPEVAHRVIRTMAHSDLDWGVVVCRVDGAFIARGDVEFLTETVRYYAKLDVVDDLHSVVNDQVIKLAIYSFPDAETVAAPALAESVGDHTLAISGAHWIDIMSPHANKGVALQQLADNLGVPIEHTAAFGDYLNDYELLHTAGTAYAMSNAHPDIKDIADHVVGSNDEESVLTTIHSLLTAAK", "soluble on expression in E. coli": "not soluble"}, {"sequence": "DSLGNLVDGDQIIYIIAKDRHQRGVLHGGVVGTLMSNYGLELAITSLGVPFQRSKVGDRYVLETLREKDWKIGGETSGHIVCLDKTTTGDGIVAALQVLSIMVKQNKALHELTAGIQLL", "soluble on expression in E. coli": "not soluble"}, {"sequence": "MGSDKIHHHHHHMRILYINHYAGSPRHGMEFRPYYLAREWVKAGHEVNMLAADVSHLRQTHPQVDGKYRDEDIDGIRYTWCKTRPYSGNGVGRVLNIFSFLAKVMGLSRRYLKEWQPDVVIASSTYPLDTVPAAWIAGKTGARLVYEVHDLWPLTPVEVGGMSPKHPFIRLLQWAEDFGYKRADTVVSMLPCARDYMMAHGMAAEKYAVIPNGVDVSEWQGETLPLSAEHRMRLAELKSHGRFIVGYAGGHGLANALDYLLEAAALMRDAPVTFVLVGDGPDKQALVSRAAELKLDNVMFLPSIAKRSVPAFLAECDALYIGWRKLPIYRFGINPNKLFDYMMAGKPVIHSVEAGNDMVKDAGAGLSIGVEDPAVIADAVKRMAVLPLAERETMGAAGKAYVLANHDYAVLARRFLAAVKL", "soluble on expression in E. coli": "not soluble"}, {"sequence": "GSHMTSFLHAYFTRLHCQPLGVPTVEALRTLHLAHNCAIPFENLDVLLPREIQLDETALEEKLLYARRGGYCFELNGLFERALRDIGFNVRSLLGRVILSHPASLPPRTHRLLLVDVEDEQWIADVGFGGQTLTAPLRLQAEIAQQTPHGEYRLMQEGSTWILQFRHHEHWQSMYCFDLGVQQQSDHVMGNFWSAHWPQSHFRHHLLMCRHLPDGGKLTLTNFHFTRYHQGHAVEQVNVPDVPSLYQLLQQQFGLGVNDVKHGFTEAELAAVMAAFDTHPEAGK", "soluble on expression in E. coli": "soluble"}, {"sequence": "SMQGPRTRARLGANEVLLVVGGFGSQQSPIDVVEKYDPKTQEWSFLPSITRKRRYVASVSLHDRIYVIGGYDGRSRLSSVECLDYTADEDGVWYSVAPMNVRRGLAGATTLGDMIYVSGGFDGSRRHTSMERYDPNIDQWSMLGDMQTAREGAGLVVASGVIYCLGGYDGLNILNSVEKYDPHTGHWTNVTPMATKRSGAGVALLNDHIYVVGGFDGTAHLSSVEAYNIRTDSWTTVTSMTTPRCYVGATVLRGRLYAIAGYDGNSLLSSIECYDPIIDSWEVVTSMGTQRCDAGVCVLRE", "soluble on expression in E. coli": "soluble"}, {"sequence": "MFIGGAIISFLFLFGYMWKEAHSNRIRHVTLSFPHFPDNGPPLTIFFISDIHRRSVSCRMLETVKGKADLVVIGGDLAEKGVPAARVRENVRRLQTVAPVYFVWGNNDDEVDYDLQSLLEEERVYVLKNKAEVWEHGGVPIALIGVGDVSRKEADIARALEHVPPESFRILACHNPAIIARLEDEQHISLVLSGHTHGGQIRLFSFGLYEKGGLKWHGNTALFTSNGYGTTGVPLRLGAPAETHLIKIVPGKLATEKKCLSKTGKTMLEHHHHHH", "soluble on expression in E. coli": "not soluble"}, {"sequence": "MLYPDTGRRSLVQYLSGSTGEPDGRTENRRMFMDTIGEAVLRSCQPYVRTVFNSVVVLNIMRTTHIVSMDVAHLANISASGQMFNYSLSFLGMKHVILMLWRCW", "soluble on expression in E. coli": "not soluble"}, {"sequence": "MIQEYQLRILPEIAASEQQLKAYLSQEKGLNQRDITALRTLKRSIDARQRTIYVNLKVRVYLNEMPKDDEYEHTIYNNVEGKPQVIVVGAGPGGLFAALRLIELGLRPVVVERGKDVRERKKDLAQISREHRVDPESNYSFGEGGAGAYSDGKLYTRSKKRGNVDKILNVFCQHGASTAILVDAHPHIGTDKLPRVIENMRNTIIECGGEVHFKTRMDALIIEQGEVKGIETNTGETFLGPVILATGHSARDVYRWLAANNVTIEAKGIAVGVRLEHPAGLIDQIQYHNRSGRGKYLPAAEYSFVTQVDGRGVYSFCMCPGGFIVPAASGPEQVVVNGMSPSNRGSRWSNSGMVVEIQPEDIINDKRLTVNNEAEETFPELAVLHFQEELERQCWLQGGRRQTAPAQRMVDFTRKKLSYDLPESSYSPGLISSPLHFWMPEFIAGRLSQGFQQFGRSSHGFLTNEAVMIGVETRTSSPVRIVRDKDTLQHITLRGLFPCGEGAGYAGGIVSAGIDGERCAEAVAQFMNPLEHHHHHH", "soluble on expression in E. coli": "soluble"}, {"sequence": "MAGDPMYHSRPIFNIIDSSNIQDRRELKLVLRHTEIAYRSFAQEDLIPAQRSWMNSIINTDVPIDPAIDEVVKRFCEVACLPGPAGIPLNIILNDSLTYVYCSFQAMRKYAHKRFYDGVSDEGVVISTVPPYAEGITKETMRSWHNNVCQNTSNETHDLDAYIAFLPTSLQNPSFSHMKIGCDSFLAPSRVDPFCVEIIAVGKALFHDNGLKKNPRCGGQWLPPSCLEHHHHHH", "soluble on expression in E. coli": "not soluble"}, {"sequence": "MGSDKIHHHHHHMPAISVQDVSKRFRVFAKPADRLKAAVRHRIGGLAKLVPARLLGTEGASEFHALQHVSFHVQKGETIGIIGRNGSGKSTLLQIICGTLTPSGGRVAINGRVAALLELGAGFNPEFTGRENVYMNAALLGLSKAQIEERLDAIFAFADIGGFVDQPVKTYSSGMYVRLAFAVIAHVDADVLVIDEALAVGDAFFTQKCMRFLRAFMERGTVLFVSHDTNAVVNLCTRVVWLDKGRVREIGPAKDVCDSYLEAFYEEQHCASGRSVRALERSSVVRAIAEGDMRDQRALLINASKLRNDVELFQFTADAKNFGLGGASIEHVGIEDGTGAPLNWVVGGEIVCIRIAVKALQNLERAIVGFIVRDRLGQNLFGDNTYLTTLNEPFAVAAGESFSVRFGFRMPVLPVGDYSVTVAVADGSQSDHVIHQWLHDAVLLKSHSTSVSTGLIGIPMHEIVLERDTLNEVGAAQ", "soluble on expression in E. coli": "not soluble"}, {"sequence": "MGSDKIHHHHHHMEREKVELFKEVLKKLHKGEDVESLKKQFGELLSQIPPFEIPVIEQELLKSGEIDVRDIIKMCDLHVEFFRGAVSEAGREIEKLPNGHPLRTLYEENKQILKDAEALSLLASSMFSLPKDDPRRKQFYEKLVQHVSELHRIGLTHYTREEMLIFPYIERRGITAVPTVLWSKHDETRLKIRLLLNLLKKEESDERLKEEALELSRMLSDMVFRENNILYPTLKVLLTEGEWKAIKMLEKDIGYYKIEVTEEWETPEKPLLPHRNCLRRPIPFRGLGGSRHVYHLQIQ", "soluble on expression in E. coli": "not soluble"}, {"sequence": "MGIGNENKGFITASADALINWVRTGSLWPVTTGLACCAVEMMHAGAARYDLDRFGIVFRPSPRQSDVLIVAGTLCNKMAPALRQVYDQMPDPKWVISMGSCANGGGYYHYSYSVVRGCDRIVPVDIYVPGCPPTAEALVYGIIQLQNKIIRKDTIARK", "soluble on expression in E. coli": "not soluble"}, {"sequence": "MGSDKIHHHHHHMSTNPSLPWHAGELALQARVGVAAKMEDVGRRVMRDYMPDQHREFFAQMPFVVLGTVAPDGRVWATLRAGRPGFLQSPDARILELRLPREAADPADAGMEDGQPLGLLGIDLMTRRRNRMNGVLRRADRDGADLRIDVVQSFGNCPRYIQQRAFRFTRDPSEQTTIAPLAMGALDSRARALIASADAFFVASYADRPEAGRQVDVSHRGGEPGFVRIDADGGLTIPDFAGNLFFNTLGNFMVNPAAGVTFADFDTGELLQMSGRVEVIVDSPEIAAFQGAERLWRFFPEKIVRREAALPMRWARAGDAADE", "soluble on expression in E. coli": "not soluble"}, {"sequence": "MGSDKIHHHHHHMPAKTLYCATLASLNGLSDNRNATGISFIFQGGAVEEMQKVLVNEKGMAWITCEKCSHTSGIDVSRLSDRAPFIRYKCVKCDAEFDVACEFRKSYRKEVHLNGVFIQQQPREDYAGRIEILDISKTGVRFKTRVKFDFKPGYLLKLSFSLDDAKKTNINQTVEVKWVNGQLVGGEFRNQDHWTSQQLGFYFMS", "soluble on expression in E. coli": "not soluble"}, {"sequence": "LMPTERIDINEREDCTASEMTAPTVPVALVTGAAKRLGRSIAEGLHAEGYAVCLHYHRSAAEANALSATLNARRPNSAITVQADLSNVATAPVSGADGSAPVTLFTRCAELVAACYTHWGRCDVLVNNASSFYPTPLLRNDEDGHEPCVGDREAMETATADLFGSNAIAPYFLIKAFAHRVAGTPAKHRGTNYSIINMVDAMTNQPLLGYTIYTMAKGALEGLTRSAALELAPLQIRVNGVGPGLSVLVDDMPPAVWEGHRSKVPLYQRDSSAAEVSDVVIFLCSSKAKYITGTCVKVDGGYSLTRA", "soluble on expression in E. coli": "soluble"}, {"sequence": "MIGSYLKIDSKPLSYQSSKAVLKHLDYNSRFQLHEQCPSLRNVLKVTPGFLNRLEFVGDCVKINGTTYQLKMTPVKLGSTTNHIQLWINGNLYAKTVSEPQNNKELAYLVCKLLRQAWEAVLYVGTLVYGNLIFPGFPKFFKFHVQHLVIGKDQDASDVLRRFGENFQNSSFKSLELFRTSSFEVPLIQSAEKLIINERMDLSALKSRRVHVEFKIDSKFLTDLIDCWLWNGAVGKTEKEAGSVFIFAMKGFREARMFVDDVKMKFEGKFYVDKR", "soluble on expression in E. coli": "not soluble"}, {"sequence": "PYSSGVDENYYQDLRNRFNHGELYSADSIPSLGGKIFKTAGGREVYGGGGIIPDIFIPLDTAGLNSYMMKVEDSDLIPRYAFLYSDANRVSLSRFKTVEELGAYLDRTYLIFDFASFAQRYGIPMRTSLINEARNRIKKYINAYIAMNFFDLQGYYQLLLHDDPFILQAISLIKEGKTFPLIYDQKGTQSTDPAA", "soluble on expression in E. coli": "not soluble"}, {"sequence": "MGSDKIHHHHHHMSIVEEQAQAGAASTSGSLLDDIMAQARISPVDEGYSVAKQGIAALVANILDSGNAAEPVNKALVDSMIVELDKKLSKQIDVILHAKELQELESSWRSLKLLIDRTDFRENIKLLVLHATKEELLEDFEFAPEISQSGFYKHVYSSGYGQFGGQPIGGVIGDYAMTQSSPDIKLMQYVSAVGAMAHAPFISSVAPTFFGVDRFTDLPSIKDLKSVFEGPAYTKWRSLRESEDGRYLGLTAPRFLARLPYDPVENPIKGFNYKEDISTDHEHYLWGNTAYLMGTALTDSFAKYRWCPNIIGPQSGGAITDLPVHVYQAMGQLQAKIPTEVLITDRREYEMAEEGFITLTMRKDSDNAAFFSANSVQKPKVFPNTKEGKEAETNYKLGTQLPYMFIINRLAHYIKVLQREQIGSWKERQDLERELNTWIKQYIADQENPPADVRSRRPLRAAQIKVLDVEGEPGWYQVTMSVRPHFKYMGANFELSLVGRLDKE", "soluble on expression in E. coli": "not soluble"}, {"sequence": "MANSETSLQARLWKTLSQSPDVRLWRNNVGTCKAADGRFVRFGLCPGSSDLIGLTRVTITPDMVGQTIALFTAIEVKTPTGRVTPEQQSFIDFVQRSGGRAGVARSMQDANKIISGEGHVLEHHHHHH", "soluble on expression in E. coli": "not soluble"}, {"sequence": "MTIWEISEKADYIAQRHRRLQDQWHIYCNSLVQGITLSKARLHHAMSCAPDKELCFVLFEHFRIYVTLADGFNSHTIEYYVETKDGEDKQRIAQAQLSIDGMIDGKVNIRDREQVLEHYLEKIAGVYDSLYTAIENNVPVNLSQLVKGQSPAA", "soluble on expression in E. coli": "soluble"}, {"sequence": "MSLVGDVYLGVGSASSEYWAAYIEGAKAVASSLGKDVNVIPSEFDGQKLLEQFGAVFAAGCEDCVVTVDPASNAFTKAMIERADTAGAKYVNLWNRPDEIHPWDTVPNTWIANISFDGVDSGYQNGMALCNALGGKGNIVALNGIPDNPPAKQRIAGLHKALQECPGLKLLDTQVGNWDQTQGQSITRAWLAKYGDELNGIFSANDGMALGAVAALREKGLVGKILVTGSDGSSDVIKLIEKGEMLSTMHIDGYVQGAYAVALAAAAVKGDIKMDELKQDQRDFFLSQTLVTKDNAASVLNSKKDASQFSYDALKGNFWAASVGQIPAGANEGHHHHHH", "soluble on expression in E. coli": "soluble"}]}]}
